In the supplement of paper PMC12042874:
± gives the uncertainty stated by the source.

experiment: amyloid nucleation score (Sup35N fusion, yeast selection) (log enrichment); library NNK3; higher = more nucleation; inactive = no reads after selection
Method in brief: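 Growth for 7 days at 30°C on medium lacking adenine and uracil followed a 24-hour induction with 100 μM copper sulfate of psi-negative yeast expressing peptides of 20 random codons fused to Sup35N. Input and output plasmid inserts were sequenced with Illumina, and sequences with under 100 input reads were excluded. Nucleation score is the DiMSum log enrichment of output over input reads, centred on the mode score of non-aggregating sequences.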

Amyloid nucleation score, 0.781 ± 0.28:
MPSRCMLDSTIILYYWRFEH

Amyloid nucleation score, 0.142 ± 0.93:
MNTRAVSVEFRYCARYFCHA

Amyloid nucleation score, 0.289 ± 0.25:
MNLYVSSLIGISARMWDWFS

Amyloid nucleation score, -0.292 ± 1.2:
MLMVLRGRSRDNNVQSLLFA

Amyloid nucleation score, 0.174 ± 1:
MPKAGVSTVSLSHRKVLTLP

Amyloid nucleation score, 1.96 ± 0.081:
MPFGYICWIGVCFSHD

Amyloid nucleation score, 0.743 ± 0.22:
MRASCCKCVHICTYMSDRFD

Amyloid nucleation score, 1.34 ± 0.11:
MNKFLSVAIQGIYVERNAHV

Amyloid nucleation score, 1.3 ± 0.1:
MKLCNVRGIKVFAFCSGSRR

Amyloid nucleation score, 0.146 ± 0.9:
MKCFSVSVLCNLGSFLCEVT

Amyloid nucleation score, 0.972 ± 0.1:
MLLVLR

Amyloid nucleation score, 1.02 ± 0.15:
MQWNWEGSLYMKIMSGMCHP

Amyloid nucleation score, inactive:
MHTFSDQSISVEQRTCLQVR, MICESFVSLLLVKCELLGTA, MICHDLRSFIM, MIDRRMSFRQGDHKDCPTAH, MIIRGKPVIWMECLAVRTDR, MIKVLCTLFIDWAVAYVICH, MILTKSNSEVFEVGNKKLRV, MIRWAYLCM, MIYSTRSVFDFCGTFNTVVY, MKGVLAKNGYIDGVLGNTAM, MKRGWFELMIHWDYI, MLAVRMVDTPSSCQRIKPDN, MLEEGVHINSGLMIVWYIIM, MLFYCN, MLIRYAVLALCSCGTNFTDL, MLLSSVPDCFSWMGLRFCGD, MLWRTDHMYY, MMCPLKLWYHVWFSGYTL, MMLYALDRVAVTLGKSMLPA, MMMCG, MMPIRKKMNHRVTWEILWQR, MMRWIDVGYLVDLYSLRISG, MMVVNRGDHQDGGEAYEVV, MPFIPHLDGS, MPRESLDLSTWVLVEEFIYI, MPVSYAG, MRILKHMFQVDWLVNAMDAE, MRNTFRTHSKQYHHG, MRRCDVWKIYGYMLSPPLPR, MRTLYFPKCMTRLKMHVSSI, MRWVHSHANHPLHA, MRYSFRCF, MSADSCCSSCLVSTGTRVTF, MSDEDRYNRWFDTGVGVLDR, MSFGKSCEVKGGL, MSKYVGRIGCLWGNSASRAR, MSLHCDHIAEGNELWGDVRR, MSLLASLLIMYIPIRYNVE, MSMDHLMTYLRLATQVALRS, MSMPWNNHMISNVYRSYFVA, MSPWSRMF, MSSGLTVSNVL, MSSLDARIMSHYVYMVIDPV, MSSNFTRS, MSSRPGFNT, MSVDGLHCRWPSWHVKILLD, MSWLKQGLTDR, MSYSGTAHGDFLLRSCPARM, MTGDPGQFNAGDRLM, MTLFVSDTVRSLGNGNWA, MTSSVP

Amyloid nucleation score, 0.092 ± 0.96:
MKQSDLGLKGRCDNCQFGRS

Amyloid nucleation score, 0.06 ± 0.44:
MRHVCSCFRNDHGIDGVF
